This is an account of results in paper PMC7819943, “Rice protein-binding microarrays: a tool to detect cis-acting elements near promoter regions in rice”.

Data set [1] has as its target T1, OsSMF1 (Oryza sativa, UniProt Q6ZLB0 1-436).
T1 sequence: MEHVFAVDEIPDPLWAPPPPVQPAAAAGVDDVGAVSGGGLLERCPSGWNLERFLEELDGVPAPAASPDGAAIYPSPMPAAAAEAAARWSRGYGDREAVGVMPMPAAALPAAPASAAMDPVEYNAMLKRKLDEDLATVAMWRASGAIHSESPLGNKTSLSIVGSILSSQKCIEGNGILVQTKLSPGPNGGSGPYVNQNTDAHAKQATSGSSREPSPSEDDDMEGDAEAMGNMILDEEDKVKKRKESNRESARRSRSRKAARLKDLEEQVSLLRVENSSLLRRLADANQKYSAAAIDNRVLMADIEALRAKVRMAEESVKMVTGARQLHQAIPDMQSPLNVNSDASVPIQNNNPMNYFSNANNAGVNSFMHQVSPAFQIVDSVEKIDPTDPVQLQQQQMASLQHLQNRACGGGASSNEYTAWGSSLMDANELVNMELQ
As to the kind of experiment: EMSA; EMSA: 5 ug protein, 40 fmol FAM-dsDNA, 1 ug poly(dI-dC), 1X binding buffer (Pierce), 2.5% glycerol, 0.05% NP-40, 20 ul, 1 h room temperature; 6% acrylamide gel. The settings on record: protein: recombinant; tags: N-terminal polyhistidine and DsRed monomer fusion (pET32a); chain copies: 2; label: 5' FAM; blunt.

The target in data set [2] is OsWRKY34 (Oryza sativa, UniProt Q0JBA9 1-250). The description is as above. The conditions noted are these: protein: recombinant; tags: N-terminal polyhistidine and DsRed monomer fusion (pET32a); label: 5' FAM; blunt.
OsWRKY34, sequence (Q0JBA9 entry or part of it): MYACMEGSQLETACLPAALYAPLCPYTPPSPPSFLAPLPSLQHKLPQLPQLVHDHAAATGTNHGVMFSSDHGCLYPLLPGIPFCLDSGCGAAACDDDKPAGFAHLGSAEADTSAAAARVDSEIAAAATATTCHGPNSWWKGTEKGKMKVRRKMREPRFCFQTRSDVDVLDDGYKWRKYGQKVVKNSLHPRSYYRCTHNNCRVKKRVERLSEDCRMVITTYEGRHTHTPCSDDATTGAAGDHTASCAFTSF

B1: Os01g0393100_8 (ONAC026 promoter probe) (dsDNA)
DNA 1: CTGGAATCTGAGGGGAACCACGTCACGTACACAAGTATAT
DNA 2: ATATACTTGTGTACGTGACGTGGTTCCCCTCAGATTCCAG
Consider B1, for which, in data set [1], the binding result is given as “binds”.

B2: Os01g0311500_18 (dsDNA)
DNA 1: TTGACGCCGTTGACTTTTTAGTACATGTTTGACCATTCGT
DNA 2: ACGAATGGTCAAACATGTACTAAAAAGTCAACGGCGTCAA
Turning to B2, in data set [2], the binding result was “binds”.

B3: Os05g0415400_39 (ONAC024 promoter probe) (dsDNA)
DNA 1: GATAATGAGTCAGTCCTCTTGTCGATACTCCGCCGGTATG
DNA 2: CATACCGGCGGAGTATCGACAAGAGGACTGACTCATTATC
With B3, the binding result in data set [1] is reported as “binds”.
